Data taken from US20220218850A1, “Methods and Compositions for Two-Stage Microbubble Delivery of Active Agents” (Virginia Commonwealth University, priority 2021, published 2022).

System: DU-145 tumor xenografts
Assay: UTMD delivery of Alexa Fluor-His-MDA-7/MB complex to DU-145 xenografts
Type: in vivo, mice
Conditions: tail vein, ultrasound at left flank tumor (UTMD)
Method: DU-145 human prostate cancer cells were established as xenografts in the left flank of nude mice. Alexa Fluor labeled His-MDA-7/MBs complex were injected through the tail vein of nude mice, and sonoporated in the xenograft (DU-145) tumor implanted in the left flank with a portable ultrasound (SonoSite Micro-Maxx US platform) equipped with an L25 linear array transducer set at 0.7 Mechanical Index, 1.8 MPa for 10 min (UTMD approach). The fluorescent image was captured using Xenogen IVIS spectrum. […] Lighter color indicates higher fluorescent intensity.
In addition to delivering therapeutic viruses systemically, we also tested the possibility of using MBs and a UTMD approach to deliver therapeutic proteins in vivo. His tagged MDA-7/IL-24 (His-MDA-7) was purified by using Ni-NTA column chromatography. 1 mg/ml of His-MDA-7 solution was mixed with Alexa Fluor 488 containing 0.1 M Sodium bicarbonate, followed by removal of unincorporated dye by centrifugation using centricon (3 kD cut off MW). Confirmation of labeling of His-MDA-7 (Alexa Fluor-His-MDA-7) was obtained spectroflurometrically based on emission spectra changes. The Alexa Fluor-His-MDA-7 was incubated overnight with MBs and localization of the labeled protein complex in the MBs was monitored by green fluorescence and found to be associated with the lipid shell of the MB (FIG. 3A). […]

B1: Alexa Fluor-His-MDA-7: His tagged MDA-7/IL-24 protein labeled with Alexa Fluor 488, complexed with microbubbles (protein, UniProt Q13007 52-206, looked up)
Interleukin-24: QEFHFGPCQVKGVVPQKLWEAFWAVKDTMQAQDNITSARLLQQEVLQNVSDAESCYLVHTLLEFYLKTVFKNYHNRTVEVRTLKSFSTLANNFVLIVSQLQPSQENEMFSIRDSAHRRFLLFRRAFKQLDVEAALTKALGEVDILLTWMQKFYKL
modifications: His tag, Alexa Fluor 488, microbubble complex
notes: His tagged MDA-7/IL-24 protein labeled with Alexa Fluor 488, complexed with microbubbles
  localisation of labeled protein (fluorescent image): mostly localized in the left flank where ultrasound was applied
Listed as Alexa Fluor-MDA-7
  localisation of labeled protein (fluorescent image): located predominantly in the tumor in the left flank of mice
